The term Kd denotes the constant that tells how readily two partners part at equilibrium. Low readings indicate higher affinity, high ones lower affinity. Broadly, the koff is a measure of how fast the partners let go of each other. A lower koff goes with slow dissociation. Broadly, the kon is a measure of how fast the partners come together. By EC50 is commonly meant the concentration at which the effect is half-maximal. Low values mean greater potency, high ones weaker potency.

We go through two molecules from patent US20250361296A1 (BIOCYTOGEN PHARMACEUTICALS BEIJING, published 2025).

Test [1] addresses T1, His-tagged mouse SIGLEC15 protein (mSIGLEC15-His, ACROBiosystems Inc., Cat #: SG5-M52H7) (mouse).
T1 construct: Bought protein; not shown: His tag
T1 chain: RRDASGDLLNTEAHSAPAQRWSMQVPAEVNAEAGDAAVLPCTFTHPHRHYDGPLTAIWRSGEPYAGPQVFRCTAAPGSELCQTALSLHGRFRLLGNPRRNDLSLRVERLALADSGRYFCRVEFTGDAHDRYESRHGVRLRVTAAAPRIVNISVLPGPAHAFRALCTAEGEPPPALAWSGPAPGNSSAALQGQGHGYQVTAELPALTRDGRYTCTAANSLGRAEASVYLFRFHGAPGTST
Put plainly: SPR (Biacore 8K), antibody captured on Protein A chip, His-tagged SIGLEC15 as analyte. As for the experimental part:
(§1) Purified anti-SIGLEC15 antibodies was captured on the Protein A chip (Series S Sensor Chip Protein A) for the detection. […] The flow rate was 30 μL/min, the binding and dissociation time were set to 180 s and 600 s, respectively. The chip was regenerated after the last injection of each titration with a glycine solution (pH 2.0) at 30 μL/min for 30 seconds.
(§2) Kinetic association rates (kon) and dissociation rates (koff) were obtained simultaneously by fitting the data globally to a 1:1 Langmuir binding model (Karlsson, R. Roos, H. Fagerstam, L. Petersson, B., 1994. Methods Enzymology 6. 99-110) using Biacore™ 8K Evaluation Software 3.0. Affinities were deduced from the quotient of the kinetic rate constants (KD=koff/kon). As a person of ordinary skill in the art would understand, the same method with appropriate adjustments for parameters (e.g., antibody concentration) was performed for each tested antibody.
(In general: Surface plasmon resonance follows binding to a sensor surface in real time, without labels.)

The target in test [2] is T2, His-tagged human SIGLEC15 protein (hSIGLEC15-His, Novoprotein Scientific Inc., Cat #: CW37) (human, UniProt Q6ZMC9 20-263).
T2 construct: Bought protein; not shown: His tag
T2 sequence: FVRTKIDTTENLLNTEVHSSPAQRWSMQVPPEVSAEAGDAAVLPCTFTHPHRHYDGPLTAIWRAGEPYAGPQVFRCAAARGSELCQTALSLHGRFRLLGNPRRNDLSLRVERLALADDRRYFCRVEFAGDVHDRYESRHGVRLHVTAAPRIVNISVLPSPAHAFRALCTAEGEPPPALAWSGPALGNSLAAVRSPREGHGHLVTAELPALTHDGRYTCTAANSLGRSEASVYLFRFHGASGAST
The description is as above. As to the method: as §1, §2

In test [3] the target is T3, human SIGLEC15 on CHO-S-hSIGLEC15 cells (human, UniProt Q6ZMC9 20-328).
T3 sequence: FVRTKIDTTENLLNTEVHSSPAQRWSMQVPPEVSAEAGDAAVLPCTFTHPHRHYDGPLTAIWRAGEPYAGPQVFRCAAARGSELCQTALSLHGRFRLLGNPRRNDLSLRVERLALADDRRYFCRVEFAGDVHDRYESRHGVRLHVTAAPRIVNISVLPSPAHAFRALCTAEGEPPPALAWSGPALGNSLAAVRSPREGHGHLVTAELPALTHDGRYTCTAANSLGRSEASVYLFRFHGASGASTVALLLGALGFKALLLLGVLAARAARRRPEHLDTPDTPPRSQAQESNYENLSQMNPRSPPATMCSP
Put plainly: flow cytometry (MFI) on CHO-S-hSIGLEC15 cells; antibody sample: freeze 10. As for the experimental part: (§3) In the activity detection experiment, 30 μL of CHO-S-hSIGLEC15 cells were added to the culture plate, and the antibody to be tested was added in a gradient dilution ([…]), and incubated at 4° C. for 30 min. The plate was washed with PBS, and diluted secondary antibody Anti-hIgG-Fc-Alex Flour 647 (RL1-H) (1:2000) was added, incubated at 4° C. for 30 min. The plate was washed once with PBS and the cells were resuspended for flow cytometry detection. MFI value was derived by FlowJo 7.6.1 analysis to calculate EC50.

Test [4] has as its target T3, human SIGLEC15 on CHO-S-hSIGLEC15 cells. Briefly: flow cytometry (MFI) on CHO-S-hSIGLEC15 cells; antibody sample: 0 d. As to the method: as §3
The target is the same in test [5]. Briefly: flow cytometry (MFI) on CHO-S-hSIGLEC15 cells; antibody sample: 25° C. 7 d. As to the method: as §3
(In general: Flow cytometry measures light scatter and fluorescence of single cells or particles in a stream.)

The target is the same in test [6]. Briefly: flow cytometry (MFI) on CHO-S-hSIGLEC15 cells; antibody sample: freeze 1. As for the experimental part: as §3
The target is the same in test [7]. Briefly: flow cytometry (MFI) on CHO-S-hSIGLEC15 cells; antibody sample: 40° C. 7 d. As to the method:
as §3

B1: anti-SIGLEC15 antibody 10C9 (antibody, human IgG1, V domains shown)
VH: QVQLVQSGAEVKKPGATVKVSCKASGYTFTNYGFSWVRQAPGQGLEWMGWINTYNDNTNYAQKFQGRVTMTTDTSTSTAYMELRSLRSDDTAVYYCARDGLWFGELPHYFDYWGQGTLVTVSS
VL: DIQLTQSPLSSPVTLGQPASISCRSSQSLVNSDGETFLSWLQQRPGQPPRLLIYKISNRFSGVPDRFSGSGAGTDFTLKISRVEAEDVGVYYCMQATQFPHTFGQGTKLEIK
Take B1: the figures for the Kd in test [1] and in test [2] were 2170 pM and 0.0846 pM, respectively. Besides, the results for the dissociation rate constant (koff) in test [1] and in test [2] were 0.00253 s⁻¹ and 2.23e-07 s⁻¹, respectively. Also, the kon is 1.17e+06 M⁻¹ s⁻¹ in test [1] and 2.63e+06 M⁻¹ s⁻¹ in test [2]. Also, the EC50 in test [3] was found to be 0.81 mg/L; in test [4], 1.17 mg/L; in test [5], 0.65 mg/L; in test [6] it was 0.62 mg/L; in test [7] it was 0.6 mg/L.

B2: anti-SIGLEC15 antibody 23F4 (antibody, human IgG1, V domains shown)
VH: QVQLQQWGAGLLKPSETLSLTCAVYGGSFSGYFWSWIRQPPGKGLEWIGEINHSGSTNYNPSLKSRVTLSVDTSKNQFSLKLSSVTAADTAVYYCAREGDSSSWGNWFDPWGQGTLVTVSS
VL: EIVLTQSPGTLSLSPGERATLSCRASQSVSSSYLAWYQQKPGQAPRFLIYGASSRATGIPDRFSGSGSGTDFTLTISRLEPEDFAVYYCQQFGNSPLTFGGGTKVEIK
Regarding B2, the dissociation constant Kd was 1970 pM in test [1] and 0.164 pM in test [2]. In addition, the koff amounted to 0.00126 s⁻¹ in test [1] and 6.85e-07 s⁻¹ in test [2]. In addition, the on-rate (kon) came to 639000 M⁻¹ s⁻¹ in test [1] and 4.19e+06 M⁻¹ s⁻¹ in test [2]. Also, the EC50 in test [3] amounted to 0.129 mg/L; in test [4], 0.129 mg/L; in test [5], 0.106 mg/L; in test [6], 0.125 mg/L; in test [7], 0.111 mg/L.
